Experimental data taken from the nanobody polyreactivity screen of Harvey et al. (2022).

Experiment: yeast display, Sf9 membrane polyspecificity reagent, FACS + sequencing; frameworks hold sequencing errors
Method in brief: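 After 36–48 hours of galactose induction, yeast (Saccharomyces cerevisiae BJ5465) displaying a synthetic nanobody library were stained at 4 °C for 1 hour with 10% biotinylated, detergent-solubilized Sf9 membrane reagent. Streptavidin microbeads enriched the stained cells before FACS sorting into low and high (top ~1%) gates on anti-HA and streptavidin fluorescence. Each clone's polyreactivity label reflects its gate of origin.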

Row | Sequence | polyreactivity (PSR sort gate)
1 | QVQLVESGGGLVQAGGSLRLSCAASGITFYDYDMGWYIQAPGKERELVADISYSGGGTYYADSVKGRFTISRDNAKNTVYLQMNSLKPEDTAVYYCAADSQRYYGDYYWGQGTQVTVSS | high polyreactivity
2 | QVQLVESGGGLVQEGGSLRLSCAASGSIFFYYAMGWYRQAPGKERELVAAITSSGDSTYYADSVKGRFTISRDNAKNTVYLQMNSLKPVETAVYYCAALYIGYTGYYYWGQGTQVTVSS | low polyreactivity
3 | QVQLVESGGGLVQAGGSLRLTCAASGSIVWYAMGSYRQATGKEREVVAAISRRGGSTYYADSVKGRFTISRDNAKNTVYLQSKSLKSEDTAVYYCADRPAREEYDYWGQGTQVTVSS | high polyreactivity
4 | QVQLVESGGGLVQAGGSLRLSCAASGRIFRRNAMGWYRQAPGKERELVASITRGGRTSYADSVKGRFTISRDNAKNTVYLQMNSLKPEDTAVYYCNARSYQSARFRGGYWGQGTQVTVSS | high polyreactivity
5 | QVQLGESGGGLVQAGGSLRLSCAASGSIFYFNAMGWYRQAPGKERELVAAISWSGRTYYADSVKGRFTISRDNAKNTVYLQMNSLKPEDTAVFYCAAKNTGRYYWGQGTQVTVSS | high polyreactivity
6 | QVQLVESGGGLVQEGGSLRLSCAASGFIFSSNDMGWYRQPPGKERELVAVISRSGGRTYYADSVKGRFTISRDNAKNTVYLQMNSLKPEDTSVYYCNKKDRLGHSGRDYWGQGTQVTVSS | high polyreactivity
7 | QVQLVESGGGLVQAGGSLRLSCAASGFIFTRYAMGWYRQAPGKERELVARISGGGGSTYYADSVKGRFTISRDNAKNTVYLQMNSLKPEDTAVYYCNARWYPYISRYGIEARYDYWGQGTQVTVSS | high polyreactivity
8 | QVQLVESGGGLVQAGGSLRLSCAASGRTFYLYTMGWYRQAPGKERELVAAITRGGNTYYADSVKGRFTISRDNAKNTVYLQMNSLKPEDTAVYYCAAADYTTPVPYGRKGFDYWGQGTQVTVSS | low polyreactivity
9 | QDQLVESGAGLVQAGGSLRLSCAASGRIFPGYAMGWYRQAPGKERELVAGITWRTARTYYADSVKGRFTISRDNAKNTVYLQMNSLKPEDTAVYYCAAKYARYGRHVIFDYWGQGTQVTVSS | high polyreactivity
10 | QVQLVESGGGLVQAGGSLRISCAASGSIFSRNAMGWYRQAPGKERELVAAITSGGSTYYADSVKGRFTISRDNAKNTVYLQMNSLKPEDTAVYYCAAVDYYGYVPEFGYWGQGTQVTVSS | low polyreactivity
11 | QVQLVESGGGLVQAGGSLRLSCAASGRIFGRYAMGWYRQAPGKERELVAAITRSGGNTYYADSVKGRFTISRDNAKNTVYLQMNSLKPEDTAVYYCAVRQLDRRSPKYNYWGQGTQVTVSS | high polyreactivity
12 | QVQLVESGGGLVQAGGSLRLFCAASGRIFSAYAMGLYRQAPGKERELVAGISSRGGSTYYADSVKGRFTISRDNAKNTVYLQMNSLKPEDTAVYYCAKPYGRRYGRLHDYWGQGTQVTVSS | high polyreactivity
13 | QVQLVESGGGLVQAGGSLRLSCAASGNIFQKYAMGWYRQAPGKERELVAAIRRGDRTYADSVKGRFTISRDNAKNTVYLQMISLKPEDTAVYYCAAPQVWWGYYTRGVDYWGQGTQVTVSS | low polyreactivity
14 | QVQLVESGGGLVQAGGSLRLSCAASGIIFYLYAMGWYRQARGKEWELVAAISRRGVSTYYADSLMGRFTISRDNAKNTVYLQMNSLKPEDTAVYYCAAAGFGYTGEEYWGQGTQVTVSS | high polyreactivity
15 | QVQIVESGGGLVQAGGSLRLSCAASGRIFLPYAMGWYRQAPGKERELVAAITQSGVITSYADSVKGRFTISRDNAKNTVYLQMNSLKPEDTAVYYCATVRTVIVFRFPYSYGYWGQGTQVTVSS | high polyreactivity
16 | QVQLVESGGGLVQAGGSLRLSCPASGRIFHRNTMGWYRPAPGKERELVAAIRSGSRTYYADSVKGRFTISRDNAKNTVYLQMNSLKPEDKAVYYCATTYGSPRYDYWGQGTQVTVSS | high polyreactivity
17 | QVQLVESGGGLVQAGGSLRLSCAASGFTFRGNAMGWYRQAPGKERELVAAITSSDDSTYYADSVKGRFTISRDNAKNTVYLQMNSLKPEDTAVYYCAAVANGYWTYEYWGQGTQVTVSS | low polyreactivity
18 | QVQLVESCGGLVQAGGSLRLSCAASGRNFYFNAMGWYRKAPGKERELVARISTGGITNYADSVKGRFTISRDNAKITVYLQMNSLKPEDTAVYYCAADYRRTWRYNYCGQGTQVTVSS | high polyreactivity
19 | QVQLVESGGGLVQAGGSLRLSCAASGSIFSSYAMGWYRQAPGKERALVAGISRRGGSTYYADSVKGRFTISRDNAKNTVYLQMNSLKPEDTAVYYCNARSAGSDLDYWGQGTQVTVSS | high polyreactivity
20 | QVQLVESGGGLVQAGGSLRLSCAPSGSTFRRNTMGWYRQAPGKARELVAGISSSGGSTYYADSVKGRFTISRDNAKNTVYLQMNSLKPEDTAVYYCAARFYVSYVGYNYWGQGSQVTVSS | high polyreactivity
21 | QVQLVESGGGLVHAGGSLRLSCAASGRTFTRNAMGWYRQAPGKERELVAAISISGGRTYYADSVKGRFTISRDNAKNTVSLQMNSLKPEDTAVYYCANVTTSKYDYDYWGQGTQVTVSS | high polyreactivity
22 | QVQLVESGGGLVQAGGSLRLSCAASGFIFGYNAMGWYRQAPGKERELVAAITRSGGRTYYADSVKGRFTISRDNAKNTVYLQMNSLKPEDTSVYYCAASRFATYPRWYDYWGQGTQVTVSS | low polyreactivity

Row | Sequence | polyreactivity (PSR sort gate)
23 | QVQLVESGGGLVQAGGSLRLRCAASGSIFAHYTMGWYRQAPGKERELVAVISRSGARTYYADSVKGRFTISRDNAKNTVYLQMNSLKPEDTEVYYCAADRTLEEDYWGQGTQVTVSS | low polyreactivity
24 | QVQLVEAGGGLVQAGGSLRLSCAASGYIFAYYAMGWYRQAPGKERELVATIRSGGSTNYADSVKGRFTISRDNGKNTVYLQMNSLKPEDTAVYYCARDDATAGDYWGQGTQVTVSS | low polyreactivity
25 | QVQLVESGGGLVQAGGSLRLSCAASGSIFRPNTMGWYRQAPGKERELVAAINWSGDDTYYADSVKGRFTISRDNAKNTVYLQMNSLKPEDTAVYYCAVDLFDGVTKLNYDYWGQGTQVTVSS | low polyreactivity
26 | QVQLVESGGGLVQAGGSLRLSCAASGSIFDSYTMAWYRQEPGKEREFVAAISRGGGSTYYADSVKGRFTISRDNAKNTVYLQMNSLKPEDTAVYYCAASSYLNSRFKFDYWGQGTQVTVSS | low polyreactivity
27 | QVQLVESGGGLVQAGGSLRLSCAASGSTFVLYAMGWYRQAPGKERELVAAIDSSGGSTYYADSVKGRFTISRDNAKNTVYLQMNSLKPEDTAVYYCAKAGRYANLPYGYWGQGTQVTVSS | high polyreactivity
28 | QVQLVESVGGLVQAGGSLRLSCAASGSNFYVNAMGWYRQAPGKERELVAAISRRGGSTYYADSVKGRFTISRDNAKNTVSLQMNSLKPEDTAVYYCNKAIRGQAPSGPEYYYWGHGTQVTVSS | high polyreactivity
29 | QVQLEESGGGLVQAGGSLRLSCAASGSTCGYYAMGWYRQAPGKERELVAVITRGGSTYYADSVKGRFTISRDNAMNTVYLQMNSLKPEDTAVYYCNARVQAVHYGYWGQGTQVPVSS | high polyreactivity
30 | QVQLVESGGGLVQAGGSLRLSCAASGFIFSSYAMGWYRQAPGKERELVAAISRSGGRTNYADSVKGRFTISRDNAKNTVYLQMNSLKPEDTAVYYCAAGRWWVYRYARYYYWGQGTQVTVSS | high polyreactivity
31 | QVQLVESGGGLVQAGGRLRLSCAASGSIFGRYAMGRYRQAPGKERELVAAITWSATSTYYADYVKGRFTISRDNAKNTVYLQMNSLKPEDTAVYYCAVRTPRARYTYGSWGQGTQVTVSS | high polyreactivity
32 | QVQLVESGGGLVQAGGSLRLSCAASGRIFKRYAMGWYRQAPGKERELVASITWSGGSTYYADSVKGRFTISRDNAKNTVYLQMNSLKPEDTAVYYCAARRTATTSRAYYYWGQGTQVTVSS | high polyreactivity
33 | QVQLVESGGGLVQAGGSLRLSCAASGSIFTGYAMGWYRQAPGKERELVAAISRSSGSTYYADSVKGRFTISRDNAKNTVYLQMNSLIPEDTAVYYCNAYSKYRSGRLYWMGYWGQGTQVTVSS | low polyreactivity
34 | QVQLVESGGGLVQAGGSLRLSCAASGRIFYINAMGWYRQAPGKERELVAAITSNGGSTYYADSVKGRFTISRDNAKNTVYLQMNSLKPEDTSVYYCAVSPRVPFRKPVFTPYNMYYWGQGTQVTVSS | high polyreactivity
35 | QVQLLESGGGLVQAGGSLRLSCAASGRTFVSYDMGWDRQAPGKEREVVAAITYSGGASTYYADSVKGRFTISRDYAKKTGYFQMNSLIPEDTAVYYCATDFSLSFELDYWGQGTQVTVSS | low polyreactivity
36 | QVQLVESGGGLVQAGGSLRLSCAAYGSIIHANAMGWYRQAPGKERELVAAITGDGSTYYADSVKGRFTISRDNAKNTVYLQMNSLKPEDTAVYYCNAEYYSTYDSWGQGTQVTVSS | low polyreactivity
37 | QVQLVESGGGLVQAGGSLRLSCAASGRIFAYYAMGWYRQAPGKERELVAAISRSGVSTYYADSVKGRFTISRDNAKNTVYLQMNSLKPEDTAVYYCDARWRSGFTSVDYWGQGTQVTVSS | low polyreactivity
38 | QVQLVESGGGLVQAGGSLRLSCAASGRTFPGNAMGWYRQAPGKERELVAAISYRGGSTYYADSVKGRFTISRDNAKNTVYLQMNSLKPEDTAVYYCAAASERTGYYYWGQGTQVTVSS | high polyreactivity
39 | QVQLVESGGGLVQAGGSLRLSCASSGRTFVWNAMGWYRQAPGKERELVAAIDWSGGSTYYADSVKGRFTISRDNAKNTVYLQMNSLKPEDTAVYYCAKEYWYRALWYNYWGQGTQVTVSS | high polyreactivity
40 | QVQLVESGGGLVQAGGSLRLSCAASGSTFYRYTMGWYRQAPGKERELVAAISRSGGRTYYADSVKGRFTISRDKAKNTVSVQMNSLKPEDTAVYYCAAARRYGRYFGYPMEYWGQGTQVTVTS | high polyreactivity
41 | QVQLVESGGGLFQAGGSLRLSCAASGRTFGYYAMGWYRQAPGKERELVAAITGDATTYYADSVKGRFTISRDNAKNTVYLQMNSLQPEDTAVYYCDALFTPALSEYDYWGQGTQVTVSS | high polyreactivity
42 | QVQLVESGGGLVQAGGSLRLSCAASGSTFGRNAMGWYRQAPGKERELVAAISRSGGSTYYADSVKGRFTISRDNAKNTVYLQMNRLKPEDTAVYYCAAAVSPGGVYGNRYYYWGQGTQVTVSS | high polyreactivity
43 | QVQLVESGGGLVQAGGSLRLSCAASGIIFSSYAMGWYRQAPGKERELVAAITSGGNTNYADSVKGRFTISRDNAKNTVYLQMNSLKTEDISVYYCNADTSFVWLAWHQYGFGYWGQGTQVTLSS | low polyreactivity
